Key:
[1] = target: T1, Human VPAC2 Receptor (Homo sapiens, UniProt P41587); test: Alpha screen cAMP potency at human VPAC2 receptor; assay type: cell-based; conditions: cAMP generation; read-out: Human VPAC2 Receptor: Alphascreen (EC50; nM)
T1 sequence (P41587 24-438): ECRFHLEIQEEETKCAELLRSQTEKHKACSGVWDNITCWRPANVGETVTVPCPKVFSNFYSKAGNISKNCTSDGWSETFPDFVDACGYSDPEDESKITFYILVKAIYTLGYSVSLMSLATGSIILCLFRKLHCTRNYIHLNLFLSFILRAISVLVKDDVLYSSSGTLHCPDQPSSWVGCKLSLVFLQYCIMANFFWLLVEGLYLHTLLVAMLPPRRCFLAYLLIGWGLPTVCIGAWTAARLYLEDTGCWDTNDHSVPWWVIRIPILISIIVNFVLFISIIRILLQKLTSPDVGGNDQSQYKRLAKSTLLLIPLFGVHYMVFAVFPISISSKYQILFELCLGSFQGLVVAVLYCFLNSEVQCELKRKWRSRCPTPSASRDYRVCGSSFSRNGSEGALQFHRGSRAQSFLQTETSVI
Description: Alpha screen: Cells are washed in the culture flask once with PBS. Then, the cells are rinsed with enzyme free dissociation buffer. The dissociated cells are removed. The cells are then spun down and washed in stimulation buffer. For each data point, 50,000 cells suspended in stimulation buffer are used. To this buffer, Alpha screen acceptor beads are added along with the stimuli. This mixture is incubated for 60 minutes. Lysis buffer and Alpha screen donor beads are added and are incubated for 60 to 120 minutes. The Alpha screen signal (indicative of intracellular cAMP levels) is read in a suitable instrument (e.g. AlphaQuest from Perkin-Elmer). Steps including Alpha screen donor and acceptor beads are performed in reduced light. The EC50 for cAMP generation is calculated from the raw signal or is based on absolute cAMP levels as determined by a standard curve performed on each plate.
The tested peptide concentrations are: 10000, 1000, 100, 10, 3, 1, 0.1, 0.01, 0.003, 0.001, 0.0001 and 0.00001 nM.

[2] = target: T2, Rat VPAC1 Receptor (Rattus norvegicus, UniProt P30083); test: DiscoveRx cAMP potency, CHO-PO cells transiently transfected with rat VPAC1 receptor; assay type: cell-based; conditions: cAMP generation
T2 construct: expressed in transfected cells; host or cells: CHO-PO (transient, Lipofectamine)
T2 sequence (P30083 31-459): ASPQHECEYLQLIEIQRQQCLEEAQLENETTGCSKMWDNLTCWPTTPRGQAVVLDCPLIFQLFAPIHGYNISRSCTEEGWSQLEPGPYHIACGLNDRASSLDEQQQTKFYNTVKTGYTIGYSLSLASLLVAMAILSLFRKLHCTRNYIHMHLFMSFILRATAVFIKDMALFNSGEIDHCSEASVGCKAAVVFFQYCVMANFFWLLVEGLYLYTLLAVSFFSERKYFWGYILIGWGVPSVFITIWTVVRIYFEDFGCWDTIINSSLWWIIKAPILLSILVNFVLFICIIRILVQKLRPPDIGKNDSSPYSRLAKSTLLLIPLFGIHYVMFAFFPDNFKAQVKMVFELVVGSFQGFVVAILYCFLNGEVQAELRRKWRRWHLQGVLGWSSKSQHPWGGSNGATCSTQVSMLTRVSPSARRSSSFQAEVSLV
Description: (§1) DiscoveRx: CHO-PO cells are transiently transfected with rat VPAC1 or VPAC2 receptor DNA using commercially available transfection reagents (Lipofectamine from Invitrogen). The cells are seeded at a density of 10,000/well in a 96-well plate and are allowed to grow for 3 days in […] culture medium At day 3, the assay is performed.
(§2) On the day of the experiment, the medium is removed. Also, the cells are washed twice. The cells are incubated in assay buffer plus IBMX for 15 minutes at room temperature. Afterwards, the stimuli are added and are dissolved in assay buffer. The stimuli are present for 30 minutes. Then, the assay buffer is gently removed. The cell lysis reagent of the DiscoveRx cAMP kit is added. Thereafter, the standard protocol for developing the cAMP signal as described by the manufacturer is used (DiscoveRx Inc., USA). EC50 values for cAMP generation are calculated from the raw signal or are based on absolute cAMP levels as determined by a standard curve performed on each plate.
(§3) Results for each agonist are the mean of two independent runs. Rat VPAC1 and VPAC2 results are only generated using the DiscoveRx assay.

[3] = target: T3, Rat VPAC2 Receptor (Rattus norvegicus, UniProt P35000); test: DiscoveRx cAMP potency, CHO-PO cells transiently transfected with rat VPAC2 receptor; assay type: cell-based; conditions: cAMP generation
T3 construct: expressed in transfected cells; host or cells: CHO-PO (transient, Lipofectamine)
T3 sequence (P35000 23-437): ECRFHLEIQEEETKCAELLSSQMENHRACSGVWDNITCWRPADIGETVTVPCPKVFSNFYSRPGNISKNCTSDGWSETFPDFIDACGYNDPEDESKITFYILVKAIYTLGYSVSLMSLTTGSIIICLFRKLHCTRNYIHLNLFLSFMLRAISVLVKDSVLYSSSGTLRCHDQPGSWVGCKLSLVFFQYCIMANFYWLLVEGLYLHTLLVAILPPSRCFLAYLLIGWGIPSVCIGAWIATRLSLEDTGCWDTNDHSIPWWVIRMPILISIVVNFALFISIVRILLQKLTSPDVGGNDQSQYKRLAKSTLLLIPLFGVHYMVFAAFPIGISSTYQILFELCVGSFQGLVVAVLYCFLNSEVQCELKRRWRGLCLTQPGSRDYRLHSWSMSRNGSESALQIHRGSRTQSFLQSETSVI
Description: as §1, §2, §3

[4] = target: T4, Human VPAC1 Receptor (Homo sapiens, UniProt P32241); test: Filter binding assay, 125I-labeled VIP, membranes of cells transiently transfected with human VPAC1; conditions: 125I-labeled VIP tracer
T4 construct: expressed in transfected cells
T4 sequence (P32241 31-457): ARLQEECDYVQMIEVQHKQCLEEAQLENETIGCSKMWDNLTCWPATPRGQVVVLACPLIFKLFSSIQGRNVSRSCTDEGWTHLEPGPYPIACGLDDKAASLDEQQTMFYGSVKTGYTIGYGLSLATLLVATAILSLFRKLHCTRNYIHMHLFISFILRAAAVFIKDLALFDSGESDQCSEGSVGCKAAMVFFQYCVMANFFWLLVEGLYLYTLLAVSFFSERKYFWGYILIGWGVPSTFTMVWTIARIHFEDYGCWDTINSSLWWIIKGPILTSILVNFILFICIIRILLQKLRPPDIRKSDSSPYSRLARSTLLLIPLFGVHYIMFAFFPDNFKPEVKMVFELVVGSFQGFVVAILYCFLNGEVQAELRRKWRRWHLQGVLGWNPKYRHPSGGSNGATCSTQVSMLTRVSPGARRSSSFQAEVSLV

[5] = target: T5, Human PAC1 Receptor (Homo sapiens, UniProt P41586); test: Filter binding assay, 125I-labeled PACAP-27, membranes of cells transiently transfected with human PAC1; conditions: 125I-labeled PACAP-27 tracer
T5 construct: expressed in transfected cells
T5 sequence (P41586 21-468): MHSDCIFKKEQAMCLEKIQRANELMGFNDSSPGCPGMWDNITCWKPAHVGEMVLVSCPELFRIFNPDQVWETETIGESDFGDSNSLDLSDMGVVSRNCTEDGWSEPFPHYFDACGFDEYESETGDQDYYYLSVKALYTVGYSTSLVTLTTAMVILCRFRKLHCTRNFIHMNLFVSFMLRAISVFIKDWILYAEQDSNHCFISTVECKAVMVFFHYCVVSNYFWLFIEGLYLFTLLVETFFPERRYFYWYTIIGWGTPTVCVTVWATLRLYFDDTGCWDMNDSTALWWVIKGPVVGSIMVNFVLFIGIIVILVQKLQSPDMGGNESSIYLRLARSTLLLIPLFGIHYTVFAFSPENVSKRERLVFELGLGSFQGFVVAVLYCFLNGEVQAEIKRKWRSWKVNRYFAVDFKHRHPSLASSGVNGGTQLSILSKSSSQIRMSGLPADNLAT
Description: For this assay, the solutions and equipment include:
Presoak solution: 0.5% Polyethyleneamine in Aqua dest
Buffer for flushing filter plates: 25 mM HEPES pH 7.4
Blocking buffer: 25 mM HEPES pH 7.4; 0.2% protease free BSA
Assay buffer: 25 mM HEPES pH 7.4; 0.5% protease free BSA
Dilution and assay plate: PS-Microplate, U form
Filtration Plate Multiscreen FB Opaque Plate; […] Type B Glasfiber filter
In order to prepare the filter plates, the presoak solution is aspirated by vacuum filtration. The plates are flushed twice with 200 μL flush buffer. 200 μL blocking buffer is added to the filter plate. The filter plate is then incubated with 200 μL presoak solution for 1 hour at room temperature.
The assay plate is filled with 25 μL assay buffer, 25 μL membranes (2.5 μg) suspended in assay buffer, 25 μL agonist in assay buffer, and 25 μL tracer (about 40000 cpm) in assay buffer. The filled plate is incubated for 1 hour with shaking.
The transfer from assay plate to filter plate is conducted. The blocking buffer is aspirated by vacuum filtration and washed two times with flush buffer. 90 μL is transferred from the assay plate to the filter plate. The 90 μL transferred from assay plate is aspirated and washed three times with 200 μL flush buffer. The plastic support is removed. It is dried for 1 hour at 60° C. 30 μL Microscint is added. The count is performed.

[6] = test system: Normal Wistar rats; test: Intravenous glucose tolerance test (IVGTT); assay type: in vivo, rat; conditions: for % increase AUC: Dose = 0.1 mg/kg / % increase AUC: Dose = 0.3 mg/kg: AUC insulin, 0-10 min after glucose, 24 h between glucose & compound, Wistar rats; for insulin response to the i.v. glucose challenge: FIG. 1, animals treated 24 h prior to the glucose injection, versus vehicle-treated animals
Description: Intravenous glucose tolerance test (IVGTT): Normal Wistar rats are fasted overnight and are anesthetized prior to the experiment. A blood sampling catheter is inserted into the rats. The agonist is given subcutaneously, normally 24 h prior to the glucose challenge. Blood samples are taken from the carotid artery. A blood sample is drawn immediately prior to the injection of glucose along with the agonist. After the initial blood sample, glucose mixed is injected intravenously (i.v.). A glucose challenge of 0.5 g/kg body weight is given, injecting a total of 1.5 mL vehicle with glucose and agonist per kg body weight. The peptide concentrations are varied to produce the desired dose in μg/kg. Blood samples are drawn at 2, 4, 6 and 10 minutes after giving glucose. The control group of animals receives the same vehicle along with glucose, but with no agonist added. In some instances, 20 and 30 minute post-glucose blood samples were drawn. Aprotinin is added to the blood sample (250-500 kIU/ml blood). The plasma is then analyzed for glucose and insulin using standard methodologies.
The assay uses a formulated and calibrated peptide stock in PBS. Normally, this stock is a prediluted 100 μM stock. However, a more concentrated stock with approximately 1 mg agonist per mL is used. The specific concentration is always known. Variability in the maximal response is mostly due to variability in the vehicle dose.

[7] = Pharmacokinetic profiles of PEGylated peptides in Fisher 344 rats; assay type: in vivo, rat; conditions: 100 μg agonist/kg, plasma RIA, mean N = 3
In short: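 Healthy rats (n=3/group) received 100 μg agonist/kg in PBS, dose based on peptide content; route not given. Plasma sampled 3–168 h post-dose, peptide quantified by N-terminal-directed RIA, PK parameters derived by model-independent analysis.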

[8] = Rat serum stability study (DiscoveRx cAMP read-out on CHO-VPAC2 cells); conditions: EC50, 4° C./EC50, 37° C., values >100% may represent release of intact peptide from the PEG conjugate; for 24 h stab (%): 24 h in rat serum at 37° C.; for 72 h stab (%): 72 h in rat serum at 37° C.

Substance | EC50 [1] [nM] | EC50 [2] [nM] | EC50 [3] [nM] | IC50 [4] [nM] | IC50 [5] [nM] | % increase AUC: Dose = 0.1 mg/kg [6] [%] | % increase AUC: Dose = 0.3 mg/kg [6] [%] | insulin response to the i.v. glucose challenge [6] | AUC0-last [7] [ng·h/mL] | Cl/F [7] [mL/min/kg] | Cmax [7] [ng/mL] | Tmax [7] [h] | T½ [7] [h] | 24 h stab (%) [8] [%] | 72 h stab (%) [8] [%]
C6-HSDAVFTEQY(OMe)TOrnLRAibQC(PEG20K)AAAibOrnYLQSIOrnOrnGGPSSGAPPPC(PEG20K)-NH2 (HSDAVFTEQYTXLRXQCAAXXYLQSIXXGGPSSGAPPPC; C6 acyl, two PEG20K, C-terminal amide; Synthetic sequence PEGylated VPAC2 receptor agonist) [Agonist P568] | 129 | > 1000 | 250 | – | – | – | – | – | – | – | – | – | – | – | –
C6-HSDAVFTEQY(OMe)TOrnLRAibQLAAbuAibOrnYAibQAibIOrnOrnGGPSSGAPPPC(PEG20K)C(PEG20K)-NH2 (HSDAVFTEQYTXLRXQLAXXXYXQXIXXGGPSSGAPPPCC; C6 acyl, two PEG20K, C-terminal amide; Synthetic sequence PEGylated VPAC2 receptor agonist) [Agonist P525] | – | – | – | > 25000 | > 25000 | 72 | 208 | enhancement of the insulin response | 4740 | 0.333 | 133 | 16 | 22 | 298 | 353
C6-HSDAVFTEQY(OMe)TOrnLRAibQVAAAibK(CO(CH2)2SPEG40K)YLQSIOrnOrnGGPSSGAPPPS-NH2 (HSDAVFTEQYTXLRXQVAAXXYLQSIXXGGPSSGAPPPS; C6 acyl; PEG40K; non-natural residues; amide; Synthetic sequence PEGylated VPAC2 receptor peptide agonist) [Agonist P472] | 123 | – | 285 | – | – | – | – | – | – | – | – | – | – | 66 | –
C6-HSDAVFTEQY(OMe)TOrnLRAibQVAAAibOrnYLQSIOrnC(PEG20K)OrnGGPSSGAPPPC(PEG20K)-NH2 (HSDAVFTEQYTXLRXQVAAXXYLQSIXCXGGPSSGAPPPC; C6 acyl, two PEG20K, C-terminal amide; Synthetic sequence PEGylated VPAC2 receptor agonist) [Agonist P505] | – | – | – | > 25000 | > 25000 | 12 | 74 | enhancement of the insulin response | 7006 | 0.217 | 160 | 12 | 22 | 133 | 161

From patent publication US7897573B2, “Selective VPAC2 receptor peptide agonists” (priority 2005, dated 2011)
